Here are results for ten molecules from US20250154277A1 (CONCEPT TO MEDICINE BIOTECH, published 2025).

Where a chain is given by its changes, count along the chain named. In names and notes the source's numbering stands.

Usually EC50 stands for the concentration that produces a half-maximal response. A high value points to lower potency in that assay. In general, Kd refers to the equilibrium constant for the complex coming apart. A lower Kd goes with tighter binding. Usually koff stands for a measure of how fast the partners let go of each other. A word on the kon: it is the rate constant with which the complex forms. The low end stands for slower complex formation, the high end for faster complex formation.

T1: human 5T4-His protein (human, UniProt Q13641 32-355)
T1 construct: also called recombinant 5T4 protein (human 5T4-his tag); human 5T4 protein; not shown: His tag
T1 sequence (looked up): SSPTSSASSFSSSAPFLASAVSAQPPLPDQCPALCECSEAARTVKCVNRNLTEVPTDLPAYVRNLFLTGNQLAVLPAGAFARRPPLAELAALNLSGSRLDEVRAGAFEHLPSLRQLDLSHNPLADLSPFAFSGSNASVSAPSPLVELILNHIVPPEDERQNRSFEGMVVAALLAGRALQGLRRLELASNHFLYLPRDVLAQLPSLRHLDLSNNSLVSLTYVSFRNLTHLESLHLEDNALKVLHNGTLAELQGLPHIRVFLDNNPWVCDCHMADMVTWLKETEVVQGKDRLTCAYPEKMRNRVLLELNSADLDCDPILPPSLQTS

B1: 159D5-P1 (antibody, V domains shown)
VH: DVQLVESGGGLVQPGGSRKLSCTASGFTFSNFGMHWVRQAPETGLEWVAYISSGSSTFYYADAVKGRFTISRDNPKNTLFLQMTSLRSEDTAMYFCARSPAYYRYGLDYWGQGTTLTVSS
VL: DIVLTQSPASLAVSLGQRATISCRASQSVSSSTFSYMHWYQQKPGQPPKLLIKSSSNLESGVPARFSGSGSGTDFTLNIHPVEEEDTATYYCQHSWEIPYTFGGGTKLEIK
notes: chimeric 159D5 with S62A (DS to DA) in VH CDR2; also called PTM removal antibody of 159D5-P1; 159D5-VH.S62A with 159D5 VL
B2: Hu159D5-2 (antibody, V domains shown)
VH: EVQLVESGGGVVQPGRSLRLSCAASGFTFSNFGMHWVRQAPGKGLEWVAYISSGSSTFYYADSVKGRFTISRDNSKNTLYLQMNSLRAEDTAVYYCARSPAYYRYGLDYWGQGTTVTVSS
VL: DIVMTQTPLSLSVTPGQPASISCRASQSVSSSTFSYMHWYQQKPGQPPQLLIKSSSNLESGVPDRFSGSGSGTDFTLKISRVEAEDVGVYYCQHSWEIPYTFGGGTKVEIK
notes: humanized
B3: Hu159D5-5 (antibody, V domains shown)
VH: B2 VH
VL: DIVMTQSPDSLAVSLGERATINCRASQSVSSSTFSYMHWYQQKPGQPPKLLIKSSSNLESGVPDRFSGSGSGTDFTLTISSLQAEDVAVYYCQHSWEIPYTFGGGTKVEIK
notes: humanized
B4: Hu159D5-6 (antibody, V domains shown)
VH: B2 VH
VL: B3 VL with M4L
notes: humanized
B5: Hu159D5-9 (antibody, V domains shown)
VH: B2 VH with Y95F
VL: B2 VL with M4L
notes: humanized
B6: Hu159D5-3 (antibody, V domains shown)
VH: B2 VH
VL: B2 VL with M4L
notes: humanized
B7: Hu159D5-7 (antibody, V domains shown)
VH: B2 VH with Y95F
VL: B2 VL with K53Y
notes: humanized
B8: Hu159D5-8 (antibody, V domains shown)
VH: B2 VH with Y95F
VL: B2 VL
notes: humanized
B9: Hu159D5-4 (antibody, V domains shown)
VH: B2 VH
VL: B3 VL with K53Y
notes: humanized
B10: Hu159D5-1 (antibody, V domains shown)
VH: B2 VH
VL: B2 VL with K53Y
notes: humanized

The target of the first assay is T1, human 5T4-His protein. The assay can be described thus: ELISA, coated 5T4-His. The protocol:
To evaluate the binding activity of 159D5 humanized antibodies to human 5T4, the 159D5 chimeric antibody along with 159D5 humanized mAbs were subjected to ELISA test.
Briefly, microtiter plates were coated with human 5T4-His protein at 1 μg/ml in PBS, 100 μl/well at 4° C. overnight, then blocked with 150 μl/well of 10% BSA. Serial dilutions of antibodies were added to each well and incubated for 1 hour at 37° C. The plates were washed with PBS/Tween and then incubated with Goat Anti-Human IgG-HRP for 30 mins at 37° C. After washing, the plates were developed with TMB substrate and analyzed by spectrophotometer at OD 450 nm. As shown in FIG. 14 and Table 12, most of the humanized antibodies bound to human 5T4 with high activity.
On the technique in general: An ELISA detects its analyte on a solid surface through an enzyme-linked reagent.
B1 registered an EC50 of 130 pM.
Consider B2, for which it took 120 pM to reach a half-maximal effect (EC50).
Regarding B3, the EC50 is 99 pM.
For the molecule B4, it took 100 pM to reach a half-maximal effect (EC50).
Same read-out and setting: the value for B5 was 140 pM.
Same read-out and setting: to B6 belongs 120 pM.
Same read-out and setting: the value for B7 was 97 pM; that for B8 was 150 pM.
In the case of B9, a half-maximal effect (EC50) was put at 94 pM.
B10 displayed an EC50 of 88 pM.

The next assay deals with T1, human 5T4-His protein. The assay can be described thus: SPR Biacore, Protein A capture, 50 nM 5T4-His. As to the method: The binding of the 159D5 humanized antibodies to recombinant 5T4 protein (human 5T4-his tag) was tested with Biacore using a capture method. The mAbs were captured using Protein A chip. 50 nM of human 5T4-his tag protein was injected over captured antibody for 3 mins at a flow rate of 30 μl/min. The antigen was allowed to dissociate for 600 s. All the experiments were carried out on a Biacore T200. Data analysis was carried out using the Biacore T200 evaluation software.
B1 registered a dissociation constant (Kd) of 489 pM, a koff of 0.000163 s⁻¹ and a kon of 334000 M⁻¹ s⁻¹.
Take B2: the affinity, expressed as Kd, was 789 pM; the dissociation rate constant (koff) came to 0.000227 s⁻¹; the association rate constant (kon) came out at 287000 M⁻¹ s⁻¹.
For B3 the same measures were 10100 pM, 0.000561 s⁻¹ and 55600 M⁻¹ s⁻¹.
For B4 the same measures were 710 pM, 0.000179 s⁻¹ and 252000 M⁻¹ s⁻¹.
Molecule B5 returned an equilibrium dissociation constant (Kd) of 747 pM, a koff of 0.000221 s⁻¹ and an on-rate constant (kon) of 295000 M⁻¹ s⁻¹.
On to B6, for which the Kd was determined as 1020 pM, the koff was 0.00024 s⁻¹ and the kon was determined as 235000 M⁻¹ s⁻¹.
Take B7: the affinity, expressed as Kd, was 1140 pM; the off-rate (koff) was found to be 0.000253 s⁻¹; the kon was found to be 221000 M⁻¹ s⁻¹.
B8: the Kd stood at 4190 pM, the dissociation rate constant (koff) amounted to 0.000352 s⁻¹ and the on-rate (kon) was 84000 M⁻¹ s⁻¹.
With B9, binding was characterised by a dissociation constant (Kd) of 7070 pM, the koff was determined as 0.000426 s⁻¹ and the kon is 60200 M⁻¹ s⁻¹.
Consider B10, for which binding was put at a Kd of 3990 pM, the koff stood at 0.000294 s⁻¹ and the kon was found to be 73700 M⁻¹ s⁻¹.
